Assay results as given in patent publication US20170015742A1 (published 2017).
Residue numbers refer to the chain shown, from its start. In names and notes the source's numbering stands. Values belong to the binder of their own block, whether it stands above or below them.

How the values were obtained:
[1] = target: VEGF-A (UniProt P15692-4 27-191, limits assumed); assay: SPR (Biacore), DVD-Ig captured by anti-human Fc, antigen in flow
Protocol: (§1) For example, approximately 9000 RU of goat anti-human Fc specific polyclonal antibody (Thermo Fisher Scientific Inc., Rockford, Ill.) diluted in 10 mM sodium acetate (pH 4.5) is directly immobilized across a CM5 research grade biosensor chip using a standard amine coupling kit according to manufacturer's instructions and procedures at 25 μg/ml. Unreacted moieties on the biosensor surface were blocked with ethanolamine. For kinetic analysis, rate equations derived from the 1:1 Langmuir binding model were fitted simultaneously to multiple antigen injections (using global fit analysis) with the use of Scrubber 2 (BioLogic Software), Biacore Biaevaluation 4.0.1 software or Biacore T100 Evaluation software. Purified antibodies or DVD-Ig molecules were diluted in running buffer for capture across goat anti-human Fc reaction surfaces. Antibodies or DVD-Ig molecules to be captured as a ligand (1 μg/ml) were injected over reaction matrices at a flow rate of 10 μl/minute. During the assay, all measurements were referenced against the capture surface alone (i.e., with no captured antibody or DVD-Ig molecule). […] The equilibrium dissociation constant KD (M) of the reaction between antibodies and the target antigen was then calculated from the kinetic rate constants by the following formula: KD=Koff/Kₒₙ. Binding was recorded as a function of time and kinetic rate constants were calculated.

[2] = target: PDGF-BB (UniProt P01127 82-190); assay: as above
Protocol: as §1

PDGF-BB, sequence (P01127 82-190): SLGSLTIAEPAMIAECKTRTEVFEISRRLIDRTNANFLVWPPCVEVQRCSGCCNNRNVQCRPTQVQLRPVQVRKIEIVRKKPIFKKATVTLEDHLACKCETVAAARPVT
VEGF-A, sequence (P15692 other isoform, or with tags, fused parts or gaps limits assumed): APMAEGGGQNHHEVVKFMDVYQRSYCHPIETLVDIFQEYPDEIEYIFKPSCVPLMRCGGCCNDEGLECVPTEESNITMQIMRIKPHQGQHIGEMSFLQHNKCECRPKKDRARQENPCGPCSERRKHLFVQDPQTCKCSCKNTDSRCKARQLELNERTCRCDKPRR

Kd [1]: 0.094 nM
kon [1]: 1.1e+06 M⁻¹ s⁻¹
Kd [2]: 0.18 nM
kon [2]: 1e+07 M⁻¹ s⁻¹
B5: DVD3905 (PR-1565032) (bispecific antibody, human IgG1, kappa, L234A L235A)
heavy: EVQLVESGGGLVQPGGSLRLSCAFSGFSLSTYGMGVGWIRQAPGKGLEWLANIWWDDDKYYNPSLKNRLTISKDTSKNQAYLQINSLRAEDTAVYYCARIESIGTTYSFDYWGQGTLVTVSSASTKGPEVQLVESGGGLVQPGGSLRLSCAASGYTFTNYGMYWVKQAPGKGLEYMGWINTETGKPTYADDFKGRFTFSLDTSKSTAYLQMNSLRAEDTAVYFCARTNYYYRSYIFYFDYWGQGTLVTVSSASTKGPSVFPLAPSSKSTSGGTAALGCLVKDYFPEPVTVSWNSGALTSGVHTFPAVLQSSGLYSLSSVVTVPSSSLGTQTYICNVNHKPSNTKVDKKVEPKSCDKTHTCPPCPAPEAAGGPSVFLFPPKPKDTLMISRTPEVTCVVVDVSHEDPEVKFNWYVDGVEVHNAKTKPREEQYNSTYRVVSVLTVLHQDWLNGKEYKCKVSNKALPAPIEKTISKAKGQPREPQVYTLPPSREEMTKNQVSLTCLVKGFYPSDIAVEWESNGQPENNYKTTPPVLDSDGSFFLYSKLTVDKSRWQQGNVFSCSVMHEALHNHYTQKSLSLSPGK
light: DFQLTQSPSSLSASVGDRVTITCERSSGDIGDSYVSWYQQKPGKAPKNVIYADDQRPSGVPSRFSGSGSGNSASLTISSLQPEDFATYFCQSYDINIDIVFGQGTKVEIKGTVAAPSVFIFPPDTQLTQSPSSLSASVGDRVTISCRASESVSTHMHWYQQKPGKAPKLLIYGASNLESGVPSRFSGSGSGTDFTLTISSLQPEDFATYFCQQSWNDPFTFGQGTKVEIKRTVAAPSVFIFPPSDEQLKSGTASVVCLLNNFYPREAKVQWKVDNALQSGNSQESVTEQDSKDSTYSLSSTLTLSKADYEKHKVYACEVTHQGLSSPVTKSFNRGEC
notes: DVD-Ig; outer hBDI-9E8.12 (PDGF), linkers HG-short/LK-long, inner hBDB-4G8.15 (VEGF); human IgG1 L234A, L235A / kappa

Kd [1]: 0.12 nM
kon [1]: 700000 M⁻¹ s⁻¹
Kd [2]: 0.019 nM
kon [2]: 1e+07 M⁻¹ s⁻¹
B6: 9E8.4-SL-4G8.3 (PR-1563998) (bispecific antibody, human IgG1, kappa, L234A L235A)
heavy: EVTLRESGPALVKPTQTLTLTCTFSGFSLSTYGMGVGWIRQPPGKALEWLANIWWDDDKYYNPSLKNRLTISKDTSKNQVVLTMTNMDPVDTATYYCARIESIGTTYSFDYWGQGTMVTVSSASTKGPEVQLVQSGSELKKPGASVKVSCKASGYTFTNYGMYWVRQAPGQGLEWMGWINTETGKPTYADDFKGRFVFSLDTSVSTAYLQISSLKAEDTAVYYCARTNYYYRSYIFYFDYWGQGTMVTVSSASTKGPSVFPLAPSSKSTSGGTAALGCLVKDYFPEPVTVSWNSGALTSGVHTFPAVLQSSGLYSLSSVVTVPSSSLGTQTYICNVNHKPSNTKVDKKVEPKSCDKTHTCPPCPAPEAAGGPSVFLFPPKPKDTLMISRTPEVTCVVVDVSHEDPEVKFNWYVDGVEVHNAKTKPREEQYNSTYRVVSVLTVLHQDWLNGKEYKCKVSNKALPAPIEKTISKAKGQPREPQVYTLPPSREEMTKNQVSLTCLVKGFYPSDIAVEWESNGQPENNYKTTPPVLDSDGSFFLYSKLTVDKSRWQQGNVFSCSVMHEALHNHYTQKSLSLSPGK
light: EFVLTQSPGTLSLSPGERATLSCERSSGDIGDSYVSWYQQKPGQAPRLVIYADDQRPSGIPDRFSGSGSGTDFTLTISRLEPEDFAVYYCQSYDINIDIVFGGGTKVEIKGTVAAPSVFIFPPDTVLTQSPATLSLSPGERATLSCRASESVSTHMHWYQQKPGQAPRLLIYGASNLESGVPARFSGSGSGTDFTLTISSLEPEDFAVYFCQQSWNDPFTFGQGTKLEIKRTVAAPSVFIFPPSDEQLKSGTASVVCLLNNFYPREAKVQWKVDNALQSGNSQESVTEQDSKDSTYSLSSTLTLSKADYEKHKVYACEVTHQGLSSPVTKSFNRGEC
notes: DVD-Ig; outer hBDI-9E8.4 (PDGF), linkers HG-short/LK-long, inner hBDB-4G8.3 (VEGF); human IgG1 L234A, L235A / kappa

Kd [1]: 0.013 nM
kon [1]: 3.1e+06 M⁻¹ s⁻¹
Kd [2]: 0.019 nM
kon [2]: 7.5e+06 M⁻¹ s⁻¹
B7: 4G8.3-SS-9E8.4 (PR-1564011) (bispecific antibody, human IgG1, kappa, L234A L235A)
heavy: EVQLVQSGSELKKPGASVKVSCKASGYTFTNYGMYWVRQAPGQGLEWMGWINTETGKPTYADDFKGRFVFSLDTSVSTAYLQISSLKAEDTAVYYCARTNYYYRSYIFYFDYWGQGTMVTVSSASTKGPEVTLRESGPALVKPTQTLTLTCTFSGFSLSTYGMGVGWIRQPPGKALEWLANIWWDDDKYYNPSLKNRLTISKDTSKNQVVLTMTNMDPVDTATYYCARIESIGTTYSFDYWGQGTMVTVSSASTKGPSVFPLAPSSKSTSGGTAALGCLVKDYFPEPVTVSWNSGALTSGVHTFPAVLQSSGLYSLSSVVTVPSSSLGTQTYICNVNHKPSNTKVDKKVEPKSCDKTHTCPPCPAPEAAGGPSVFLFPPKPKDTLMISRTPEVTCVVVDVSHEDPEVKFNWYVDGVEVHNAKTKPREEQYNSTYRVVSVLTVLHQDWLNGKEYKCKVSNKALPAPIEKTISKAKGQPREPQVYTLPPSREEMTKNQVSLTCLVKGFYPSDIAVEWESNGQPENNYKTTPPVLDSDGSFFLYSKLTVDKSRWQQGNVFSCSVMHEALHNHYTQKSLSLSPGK
light: DTVLTQSPATLSLSPGERATLSCRASESVSTHMHWYQQKPGQAPRLLIYGASNLESGVPARFSGSGSGTDFTLTISSLEPEDFAVYFCQQSWNDPFTFGQGTKLEIKRTVAAPEFVLTQSPGTLSLSPGERATLSCERSSGDIGDSYVSWYQQKPGQAPRLVIYADDQRPSGIPDRFSGSGSGTDFTLTISRLEPEDFAVYYCQSYDINIDIVFGGGTKVEIKGTVAAPSVFIFPPSDEQLKSGTASVVCLLNNFYPREAKVQWKVDNALQSGNSQESVTEQDSKDSTYSLSSTLTLSKADYEKHKVYACEVTHQGLSSPVTKSFNRGEC
notes: DVD-Ig; outer hBDB-4G8.3 (VEGF), linkers HG-short/LK-short, inner hBDI-9E8.4 (PDGF); human IgG1 L234A, L235A / kappa

Kd [1]: 0.2 nM
kon [1]: 270000 M⁻¹ s⁻¹
Kd [2]: 0.02 nM
kon [2]: 1e+07 M⁻¹ s⁻¹
B9: 9E8.4-LS-4G8.3 (PR-1564009) (bispecific antibody, human IgG1, kappa, L234A L235A)
heavy: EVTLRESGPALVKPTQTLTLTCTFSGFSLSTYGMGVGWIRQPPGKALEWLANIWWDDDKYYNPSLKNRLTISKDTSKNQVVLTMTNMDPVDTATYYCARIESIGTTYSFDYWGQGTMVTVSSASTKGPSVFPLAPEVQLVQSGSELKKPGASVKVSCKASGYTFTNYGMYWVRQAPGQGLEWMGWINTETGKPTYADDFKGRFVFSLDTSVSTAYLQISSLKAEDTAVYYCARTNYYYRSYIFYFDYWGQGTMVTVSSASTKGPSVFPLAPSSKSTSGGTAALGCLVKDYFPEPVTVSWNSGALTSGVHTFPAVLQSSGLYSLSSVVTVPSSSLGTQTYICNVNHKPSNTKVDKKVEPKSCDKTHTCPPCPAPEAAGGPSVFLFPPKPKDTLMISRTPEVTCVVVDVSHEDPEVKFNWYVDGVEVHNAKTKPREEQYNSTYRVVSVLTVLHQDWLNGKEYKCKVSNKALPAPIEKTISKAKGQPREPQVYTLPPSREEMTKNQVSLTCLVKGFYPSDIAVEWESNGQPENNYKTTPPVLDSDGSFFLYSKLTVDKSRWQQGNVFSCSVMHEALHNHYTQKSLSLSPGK
light: EFVLTQSPGTLSLSPGERATLSCERSSGDIGDSYVSWYQQKPGQAPRLVIYADDQRPSGIPDRFSGSGSGTDFTLTISRLEPEDFAVYYCQSYDINIDIVFGGGTKVEIKGTVAAPDTVLTQSPATLSLSPGERATLSCRASESVSTHMHWYQQKPGQAPRLLIYGASNLESGVPARFSGSGSGTDFTLTISSLEPEDFAVYFCQQSWNDPFTFGQGTKLEIKRTVAAPSVFIFPPSDEQLKSGTASVVCLLNNFYPREAKVQWKVDNALQSGNSQESVTEQDSKDSTYSLSSTLTLSKADYEKHKVYACEVTHQGLSSPVTKSFNRGEC
notes: DVD-Ig; outer hBDI-9E8.4 (PDGF), linkers HG-long/LK-short, inner hBDB-4G8.3 (VEGF); human IgG1 L234A, L235A / kappa

Kd [1]: 0.1 nM
kon [1]: 920000 M⁻¹ s⁻¹
Kd [2]: 0.72 nM
kon [2]: 1e+07 M⁻¹ s⁻¹
B10: DVD3906 (PR-1565035) (bispecific antibody, human IgG1, kappa, L234A L235A)
heavy: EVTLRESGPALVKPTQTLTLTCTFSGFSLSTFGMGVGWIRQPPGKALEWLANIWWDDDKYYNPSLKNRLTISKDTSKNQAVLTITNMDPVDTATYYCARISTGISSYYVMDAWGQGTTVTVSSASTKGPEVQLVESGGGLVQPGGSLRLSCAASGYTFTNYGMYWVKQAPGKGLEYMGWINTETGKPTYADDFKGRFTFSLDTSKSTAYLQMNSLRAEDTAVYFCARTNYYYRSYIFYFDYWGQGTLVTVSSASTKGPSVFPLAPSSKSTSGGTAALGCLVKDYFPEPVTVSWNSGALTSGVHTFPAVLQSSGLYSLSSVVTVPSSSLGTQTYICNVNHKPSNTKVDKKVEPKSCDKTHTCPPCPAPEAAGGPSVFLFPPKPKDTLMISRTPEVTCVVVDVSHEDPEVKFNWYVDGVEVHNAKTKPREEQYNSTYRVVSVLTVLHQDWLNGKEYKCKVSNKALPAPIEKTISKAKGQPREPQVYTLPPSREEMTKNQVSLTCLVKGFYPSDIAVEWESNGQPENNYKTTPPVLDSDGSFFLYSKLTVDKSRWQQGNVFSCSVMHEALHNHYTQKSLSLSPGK
light: B5 light with S33T, A52G, D53N, S74T, I95S, N96D
notes: DVD-Ig; linkers HG-short/LK-long, inner hBDB-4G8.15 (VEGF); human IgG1 L234A, L235A / kappa

More lines, now with the values behind:

B1: 4G8.3-GS(9)-9E8.4 (g) (PR-1572102) (bispecific antibody, human IgG1, kappa, L234A L235A)
heavy: EVQLVQSGSELKKPGASVKVSCKASGYTFTNYGMYWVRQAPGQGLEWMGWINTETGKPTYADDFKGRFVFSLDTSVSTAYLQISSLKAEDTAVYYCARTNYYYRSYIFYFDYWGQGTMVTVSSGGGGSGGGGSEVTLRESGPALVKPTQTLTLTCTFSGFSLSTYGMGVGWIRQPPGKALEWLANIWWDDDKYYNPSLKNRLTISKDTSKNQVVLTMTNMDPVDTATYYCARIESIGTTYSFDYWGQGTMVTVSSASTKGPSVFPLAPSSKSTSGGTAALGCLVKDYFPEPVTVSWNSGALTSGVHTFPAVLQSSGLYSLSSVVTVPSSSLGTQTYICNVNHKPSNTKVDKKVEPKSCDKTHTCPPCPAPEAAGGPSVFLFPPKPKDTLMISRTPEVTCVVVDVSHEDPEVKFNWYVDGVEVHNAKTKPREEQYNSTYRVVSVLTVLHQDWLNGKEYKCKVSNKALPAPIEKTISKAKGQPREPQVYTLPPSREEMTKNQVSLTCLVKGFYPSDIAVEWESNGQPENNYKTTPPVLDSDGSFFLYSKLTVDKSRWQQGNVFSCSVMHEALHNAYTQKSLSLSPGK
light: DTVLTQSPATLSLSPGERATLSCRASESVSTHMHWYQQKPGQAPRLLIYGASNLESGVPARFSGSGSGTDFTLTISSLEPEDFAVYFCQQSWNDPFTFGQGTKLEIKRGGSGGGGSGEFVLTQSPGTLSLSPGERATLSCERSSGDIGDSYVSWYQQKPGQAPRLVIYADDQRPSGIPDRFSGSGSGTDFTLTISRLEPEDFAVYYCQSYDINIDIVFGGGTKVEIKRTVAAPSVFIFPPSDEQLKSGTASVVCLLNNFYPREAKVQWKVDNALQSGNSQESVTEQDSKDSTYSLSSTLTLSKADYEKHKVYACEVTHQGLSSPVTKSFNRGEC
notes: DVD-Ig; outer hBDB-4G8.3 (VEGF), linkers GS-H10/GS-L10, inner hBDI-9E8.4 (PDGF); human IgG1 L234A, L235A, H435A / kappa; also called 4G8.3-GS-9E8.4 (g); hu VEGF 4G8.3-GS-hu PDGF 9E8.4 (germline) [hu IgG1/k]; LALA H435A
Kd [1]: 0.013 nM
kon [1]: 6e+06 M⁻¹ s⁻¹
Kd [2]: 0.013 nM
kon [2]: 1.3e+07 M⁻¹ s⁻¹

B2: 4G8.3-GS(noR)-9E8.4 (g) (PR-1572104) (bispecific antibody, human IgG1, kappa, L234A L235A)
heavy: B1 heavy
light: B1 light with R108G, G110S, S111G, G115S, S116G
notes: DVD-Ig; outer hBDB-4G8.3 (VEGF), linkers GS-H10/GS-L10(dR), inner hBDI-9E8.4 (PDGF); human IgG1 L234A, L235A, H435A / kappa
Kd [1]: 0.011 nM
kon [1]: 6.1e+06 M⁻¹ s⁻¹
Kd [2]: 0.0089 nM
kon [2]: 1.5e+07 M⁻¹ s⁻¹

B3: 4G8.3-GS-9E8.4 (PR-1564010) (bispecific antibody, human IgG1, kappa, L234A L235A)
heavy: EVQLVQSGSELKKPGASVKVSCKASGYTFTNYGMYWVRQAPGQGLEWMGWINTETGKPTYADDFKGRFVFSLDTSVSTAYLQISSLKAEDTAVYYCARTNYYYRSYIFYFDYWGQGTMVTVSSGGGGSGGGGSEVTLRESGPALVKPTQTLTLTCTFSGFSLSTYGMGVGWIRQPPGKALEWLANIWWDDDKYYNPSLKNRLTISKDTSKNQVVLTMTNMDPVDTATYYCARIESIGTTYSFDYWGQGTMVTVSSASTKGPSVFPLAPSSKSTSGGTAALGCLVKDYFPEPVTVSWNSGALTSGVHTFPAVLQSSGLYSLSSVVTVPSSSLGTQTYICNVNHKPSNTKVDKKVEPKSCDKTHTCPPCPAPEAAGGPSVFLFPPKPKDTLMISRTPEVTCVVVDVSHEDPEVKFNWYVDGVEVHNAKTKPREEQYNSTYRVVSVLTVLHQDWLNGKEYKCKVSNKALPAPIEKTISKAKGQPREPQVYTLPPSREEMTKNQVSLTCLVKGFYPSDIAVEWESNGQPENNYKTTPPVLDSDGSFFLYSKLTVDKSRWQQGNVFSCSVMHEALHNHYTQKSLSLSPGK
light: B1 light with R228G
notes: DVD-Ig; outer hBDB-4G8.3 (VEGF), linkers GS-H10/GS-L10, inner hBDI-9E8.4 (PDGF); human IgG1 L234A, L235A / kappa
Kd [1]: 0.017 nM
kon [1]: 3.3e+06 M⁻¹ s⁻¹
Kd [2]: 0.013 nM
kon [2]: 1e+07 M⁻¹ s⁻¹

B4: DVD3904 (PR-1565031) (bispecific antibody, human IgG1, kappa, L234A L235A)
heavy: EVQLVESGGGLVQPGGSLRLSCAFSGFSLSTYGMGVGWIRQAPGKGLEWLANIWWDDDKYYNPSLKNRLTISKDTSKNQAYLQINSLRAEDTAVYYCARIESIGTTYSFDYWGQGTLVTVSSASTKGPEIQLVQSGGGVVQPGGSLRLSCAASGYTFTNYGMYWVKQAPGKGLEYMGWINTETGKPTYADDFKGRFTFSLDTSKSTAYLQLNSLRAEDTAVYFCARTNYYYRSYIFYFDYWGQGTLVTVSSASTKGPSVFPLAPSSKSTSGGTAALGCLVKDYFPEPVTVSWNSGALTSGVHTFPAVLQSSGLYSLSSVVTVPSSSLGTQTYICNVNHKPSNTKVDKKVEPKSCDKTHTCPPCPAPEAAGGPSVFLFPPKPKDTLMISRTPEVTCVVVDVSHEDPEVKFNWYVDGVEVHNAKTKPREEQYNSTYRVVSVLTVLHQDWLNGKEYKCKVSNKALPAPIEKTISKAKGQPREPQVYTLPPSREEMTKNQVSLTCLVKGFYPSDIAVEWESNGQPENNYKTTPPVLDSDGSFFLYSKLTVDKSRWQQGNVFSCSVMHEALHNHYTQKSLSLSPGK
light: B5 light with Q126V, S133T, V138P, D140E, V142A, K165Q, G189R, T208V
notes: DVD-Ig; linkers HG-short/LK-long, inner hBDB-4G8.14 (VEGF); human IgG1 L234A, L235A / kappa
Kd [1]: 0.19 nM
kon [1]: 610000 M⁻¹ s⁻¹
Kd [2]: 0.09 nM
kon [2]: 1e+07 M⁻¹ s⁻¹

B8: 4G8.3-LS-9E8.4 (PR-1564013) (bispecific antibody, human IgG1, kappa, L234A L235A)
heavy: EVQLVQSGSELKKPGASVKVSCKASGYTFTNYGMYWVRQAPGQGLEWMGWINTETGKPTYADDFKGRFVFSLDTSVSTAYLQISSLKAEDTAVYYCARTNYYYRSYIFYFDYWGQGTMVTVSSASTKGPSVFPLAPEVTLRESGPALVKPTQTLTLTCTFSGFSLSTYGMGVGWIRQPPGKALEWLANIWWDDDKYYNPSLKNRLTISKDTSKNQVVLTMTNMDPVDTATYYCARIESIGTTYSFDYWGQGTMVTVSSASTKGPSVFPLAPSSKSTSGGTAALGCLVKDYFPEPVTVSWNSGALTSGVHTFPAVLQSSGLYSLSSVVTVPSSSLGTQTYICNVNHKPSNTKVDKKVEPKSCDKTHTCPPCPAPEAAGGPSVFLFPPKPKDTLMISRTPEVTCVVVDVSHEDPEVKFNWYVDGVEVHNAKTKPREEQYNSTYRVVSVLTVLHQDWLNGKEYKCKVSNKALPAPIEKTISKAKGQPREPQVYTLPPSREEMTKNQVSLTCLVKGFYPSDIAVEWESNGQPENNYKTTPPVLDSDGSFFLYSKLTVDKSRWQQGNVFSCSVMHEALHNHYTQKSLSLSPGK
light: B7 light
notes: DVD-Ig; outer hBDB-4G8.3 (VEGF), linkers HG-long/LK-short, inner hBDI-9E8.4 (PDGF); human IgG1 L234A, L235A / kappa
Kd [1]: 0.012 nM
kon [1]: 3.1e+06 M⁻¹ s⁻¹
Kd [2]: 0.0086 nM
kon [2]: 1.7e+07 M⁻¹ s⁻¹

B11: 4G8.3-SL-9E8.4 (PR-1564012) (bispecific antibody, human IgG1, kappa, L234A L235A)
heavy: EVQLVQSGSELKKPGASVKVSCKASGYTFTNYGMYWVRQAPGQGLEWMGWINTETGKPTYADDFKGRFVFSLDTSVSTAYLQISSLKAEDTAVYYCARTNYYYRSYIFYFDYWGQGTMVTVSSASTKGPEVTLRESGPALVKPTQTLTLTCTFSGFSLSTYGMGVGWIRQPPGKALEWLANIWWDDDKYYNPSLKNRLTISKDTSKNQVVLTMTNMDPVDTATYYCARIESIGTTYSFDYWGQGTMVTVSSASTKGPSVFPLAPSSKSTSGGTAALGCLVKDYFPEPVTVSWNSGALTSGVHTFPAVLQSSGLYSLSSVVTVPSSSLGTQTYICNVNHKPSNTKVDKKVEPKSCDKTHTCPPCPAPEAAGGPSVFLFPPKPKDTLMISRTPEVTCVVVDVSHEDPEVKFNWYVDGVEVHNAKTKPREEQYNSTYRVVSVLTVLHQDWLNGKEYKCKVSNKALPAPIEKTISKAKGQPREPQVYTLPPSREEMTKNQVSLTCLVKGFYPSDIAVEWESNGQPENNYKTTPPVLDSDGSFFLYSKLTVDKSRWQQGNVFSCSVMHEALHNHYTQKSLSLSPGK
light: DTVLTQSPATLSLSPGERATLSCRASESVSTHMHWYQQKPGQAPRLLIYGASNLESGVPARFSGSGSGTDFTLTISSLEPEDFAVYFCQQSWNDPFTFGQGTKLEIKRTVAAPSVFIFPPEFVLTQSPGTLSLSPGERATLSCERSSGDIGDSYVSWYQQKPGQAPRLVIYADDQRPSGIPDRFSGSGSGTDFTLTISRLEPEDFAVYYCQSYDINIDIVFGGGTKVEIKGTVAAPSVFIFPPSDEQLKSGTASVVCLLNNFYPREAKVQWKVDNALQSGNSQESVTEQDSKDSTYSLSSTLTLSKADYEKHKVYACEVTHQGLSSPVTKSFNRGEC
notes: DVD-Ig; outer hBDB-4G8.3 (VEGF), linkers HG-short/LK-long, inner hBDI-9E8.4 (PDGF); human IgG1 L234A, L235A / kappa
Kd [1]: 0.013 nM
kon [1]: 3.1e+06 M⁻¹ s⁻¹
Kd [2]: 0.0099 nM
kon [2]: 1.4e+07 M⁻¹ s⁻¹

B12: 4G8.3-SL-9E8.4 (g) (PR-1572105) (bispecific antibody, human IgG1, kappa, L234A L235A)
heavy: EVQLVQSGSELKKPGASVKVSCKASGYTFTNYGMYWVRQAPGQGLEWMGWINTETGKPTYADDFKGRFVFSLDTSVSTAYLQISSLKAEDTAVYYCARTNYYYRSYIFYFDYWGQGTMVTVSSASTKGPEVTLRESGPALVKPTQTLTLTCTFSGFSLSTYGMGVGWIRQPPGKALEWLANIWWDDDKYYNPSLKNRLTISKDTSKNQVVLTMTNMDPVDTATYYCARIESIGTTYSFDYWGQGTMVTVSSASTKGPSVFPLAPSSKSTSGGTAALGCLVKDYFPEPVTVSWNSGALTSGVHTFPAVLQSSGLYSLSSVVTVPSSSLGTQTYICNVNHKPSNTKVDKKVEPKSCDKTHTCPPCPAPEAAGGPSVFLFPPKPKDTLMISRTPEVTCVVVDVSHEDPEVKFNWYVDGVEVHNAKTKPREEQYNSTYRVVSVLTVLHQDWLNGKEYKCKVSNKALPAPIEKTISKAKGQPREPQVYTLPPSREEMTKNQVSLTCLVKGFYPSDIAVEWESNGQPENNYKTTPPVLDSDGSFFLYSKLTVDKSRWQQGNVFSCSVMHEALHNAYTQKSLSLSPGK
light: B11 light with G231R
notes: DVD-Ig; outer hBDB-4G8.3 (VEGF), linkers HG-short/LK-long, inner hBDI-9E8.4 (PDGF); human IgG1 L234A, L235A, H435A / kappa; also called hu VEGF 4G8.3-SL-hu PDGF 9E8.4 (germline) [hu IgG1/k]; LALA H435A; DVD-Ig-3
Kd [1]: 0.011 nM
kon [1]: 5.6e+06 M⁻¹ s⁻¹
Kd [2]: 0.013 nM
kon [2]: 1.3e+07 M⁻¹ s⁻¹
